Results from PMC6282620, “Structural and biochemical characterization of Plasmodium falciparum Hsp70‐x reveals functional versatility of its C‐terminal EEVN motif” (Proteins, 2018).

Key:
[1] = molecular target: PfHsp70‐x C‐terminal truncated version with a missing EEVN motif (Plasmodium falciparum); experiment: SPR; PfHsp70‐x or PfHsp70‐xT immobilised on ProteOn GLC chips, peptides as analytes at 1.25-20 nM, 25°C, PBS‐Tween pH 7.4, no nucleotide
[2] = molecular target: Plasmodium falciparum Hsp70‐x (full length) (Plasmodium falciparum); experiment: as above
[3] = molecular target: PfHsp70‐x C‐terminal truncated version with a missing EEVN motif (Plasmodium falciparum); experiment: SPR; PfHsp70‐x or PfHsp70‐xT immobilised on ProteOn GLC chips, peptides as analytes at 1.25-20 nM, 25°C, PBS‐Tween pH 7.4, with 2 mM ADP
[4] = molecular target: Plasmodium falciparum Hsp70‐x (full length) (Plasmodium falciparum); experiment: as above
[5] = molecular target: PfHsp70‐x C‐terminal truncated version with a missing EEVN motif (Plasmodium falciparum); experiment: SPR; PfHsp70‐x or PfHsp70‐xT immobilised on ProteOn GLC chips, peptides as analytes at 1.25-20 nM, 25°C, PBS‐Tween pH 7.4, with 2 mM ATP
[6] = molecular target: Plasmodium falciparum Hsp70‐x (full length) (Plasmodium falciparum); experiment: as above
[7] = molecular target: PfHsp70-x C-terminal truncated version with a missing EEVN motif (Plasmodium falciparum); experiment: SPR; PfHsp70-x or PfHsp70-xT immobilised on ProteOn GLC chips as ligands; peptides as analytes at 1.25-20 nM, 50 uL/min; 25 °C; PBS-Tween; no nucleotide
[8] = molecular target: Plasmodium falciparum Hsp70-x (full length) (Plasmodium falciparum); experiment: as above
[9] = molecular target: PfHsp70-x C-terminal truncated version with a missing EEVN motif (Plasmodium falciparum); experiment: SPR; PfHsp70-x or PfHsp70-xT immobilised on ProteOn GLC chips as ligands; peptides as analytes at 1.25-20 nM, 50 uL/min; 25 °C; PBS-Tween; with 2 mM ADP
[10] = molecular target: Plasmodium falciparum Hsp70-x (full length) (Plasmodium falciparum); experiment: as above
[11] = molecular target: PfHsp70-x C-terminal truncated version with a missing EEVN motif (Plasmodium falciparum); experiment: SPR; PfHsp70-x or PfHsp70-xT immobilised on ProteOn GLC chips as ligands; peptides as analytes at 1.25-20 nM, 50 uL/min; 25 °C; PBS-Tween; with 2 mM ATP
[12] = molecular target: Plasmodium falciparum Hsp70-x (full length) (Plasmodium falciparum); experiment: as above

| Binder | Kd [1] | Kd [2] | Kd [3] | Kd [4] | Kd [5] | Kd [6] | koff [7] | kon [7] | koff [8] | kon [8] | koff [9] | kon [9] | koff [10] | kon [10] | koff [11] | kon [11] | koff [12] | kon [12] |
| --- | --- | --- | --- | --- | --- | --- | --- | --- | --- | --- | --- | --- | --- | --- | --- | --- | --- | --- |
| NRLLTG [peptide NRLLTG] | 280 nM | 250 nM | 170 nM | 620 nM | 1800 nM | 1700 nM | 8.67e-06 s⁻¹ | 3.15 M⁻¹ s⁻¹ | 9.97e-06 s⁻¹ | 3.86 M⁻¹ s⁻¹ | 1e-05 s⁻¹ | 6 M⁻¹ s⁻¹ | 1.01e-05 s⁻¹ | 1.62 M⁻¹ s⁻¹ | 0.000161 s⁻¹ | 31.8 M⁻¹ s⁻¹ | 1.01e-05 s⁻¹ | 1.21 M⁻¹ s⁻¹ |
| NRNNTG [peptide NRNNTG] | 7.92 nM | 6.91 nM | 1.69 nM | 4.31 nM | 107 nM | 137 nM | 2.79e-08 s⁻¹ | 3.52 M⁻¹ s⁻¹ | 9.49e-07 s⁻¹ | 2.43 M⁻¹ s⁻¹ | 1.01e-08 s⁻¹ | 5.96 M⁻¹ s⁻¹ | 1.03e-07 s⁻¹ | 2.55 M⁻¹ s⁻¹ | 1.01e-05 s⁻¹ | 9.37 M⁻¹ s⁻¹ | 1.01e-06 s⁻¹ | 7.33 M⁻¹ s⁻¹ |
| ALLLMYRR [peptide ALLLMYRR] | 542000 nM | 1470 nM | 313000 nM | 2820 nM |  | 60600 nM | 1.04e-05 s⁻¹ |  | 1.28e-06 s⁻¹ |  | 1.04e-05 s⁻¹ |  | 0.00282 s⁻¹ |  |  |  | 1.6e-06 s⁻¹ |  |
| ANNNMYRR [peptide ANNNMYRR] | 626000 nM | 2.21 nM | 443000 nM | 2.21 nM |  | 783 nM | 1.04e-05 s⁻¹ |  | 0.000732 s⁻¹ | 331000 M⁻¹ s⁻¹ | 1.04e-05 s⁻¹ |  | 0.00386 s⁻¹ | 1.74e+06 M⁻¹ s⁻¹ |  |  | 0.00567 s⁻¹ | 7240 M⁻¹ s⁻¹ |
